These results are taken from article PMC6284149, “Biochemical, Metabolomic, and Genetic Analyses of Dephospho Coenzyme A Kinase Involved in Coenzyme A Biosynthesis in the Human Enteric Parasite Entamoeba histolytica” (Frontiers in Microbiology, 2018).

The target of one data set is T1, EhDPCK2 (Entamoeba histolytica, UniProt C4LWC7).
T1 construct: gene EHI_155780; expressed in E. coli BL21(DE3), Ni-NTA purified
T1 sequence (C4LWC7 1-204): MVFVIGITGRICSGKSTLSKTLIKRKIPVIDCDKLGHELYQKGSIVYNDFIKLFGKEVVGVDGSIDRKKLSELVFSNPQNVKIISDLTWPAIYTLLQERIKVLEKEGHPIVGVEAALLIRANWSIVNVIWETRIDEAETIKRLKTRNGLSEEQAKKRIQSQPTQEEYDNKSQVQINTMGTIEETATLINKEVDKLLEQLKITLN
As to the kind of experiment: inhibition of DPCK activity. It is filed as biochemical.

A further data set addresses T2, EhDPCK1 (Entamoeba histolytica, UniProt C4MB67).
T2 construct: gene EHI_040840; expressed in E. coli BL21(DE3), Ni-NTA purified
T2 sequence (C4MB67 1-206): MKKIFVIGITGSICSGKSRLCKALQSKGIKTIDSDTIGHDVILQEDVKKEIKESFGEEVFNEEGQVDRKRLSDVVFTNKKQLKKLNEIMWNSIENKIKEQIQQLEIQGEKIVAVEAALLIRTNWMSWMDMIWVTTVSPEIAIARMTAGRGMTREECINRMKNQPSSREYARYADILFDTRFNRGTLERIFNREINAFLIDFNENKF
As to the kind of experiment: inhibition of DPCK activity. Format: biochemical.

Substrate in data set [1]: CC(C)(COP(=O)(O)OP(=O)(O)OC[C@H]1O[C@@H](n2cnc3c(N)ncnc32)[C@H](O)[C@@H]1O)[C@@H](O)C(=O)NCCC(=O)NCCS
The data set can be described thus: ADP Hunter Plus coupled fluorescence assay, initial rates, non-linear regression. Format: biochemical, Entamoeba histolytica. The conditions noted are these: 100 μM ATP; 4-128 μM dephospho-CoA; 15 mM Hepes, 20 mM NaCl, 1 mM EGTA, 10 mM MgCl2. The text has this:
(§1) ADP Hunter Plus coupled fluorescence assay, initial rates, non-linear regression on EhDPCK1

Substrate in data set [2]: Nc1ncnc2c1ncn2[C@@H]1O[C@H](COP(=O)(O)OP(=O)(O)OP(=O)(O)O)[C@@H](O)[C@H]1O
The data set is described as above. It is filed as biochemical, Entamoeba histolytica. The conditions noted are these: 128 μM dephospho-CoA; 1-100 μM ATP; 15 mM Hepes, 20 mM NaCl, 1 mM EGTA, 10 mM MgCl2.
From the text: as §1

Substrate in data set [3]: CC(C)(COP(=O)(O)OP(=O)(O)OC[C@H]1O[C@@H](n2cnc3c(N)ncnc32)[C@H](O)[C@@H]1O)[C@@H](O)C(=O)NCCC(=O)NCCS
The description is as above. It is filed as biochemical, Entamoeba histolytica. The conditions noted are these: 100 μM ATP; 4-128 μM dephospho-CoA; 15 mM Hepes, 20 mM NaCl, 1 mM EGTA, 10 mM MgCl2. The source says: (§2) ADP Hunter Plus coupled fluorescence assay, initial rates, non-linear regression on EhDPCK2
This is another data set of the same source.

Substrate in data set [4]: Nc1ncnc2c1ncn2[C@@H]1O[C@H](COP(=O)(O)OP(=O)(O)OP(=O)(O)O)[C@@H](O)[C@H]1O
The data set is described as above. It is filed as biochemical, Entamoeba histolytica. The conditions noted are these: 128 μM dephospho-CoA; 1-100 μM ATP; 15 mM Hepes, 20 mM NaCl, 1 mM EGTA, 10 mM MgCl2.
From the text: as §2
This is another data set of the same source.

Where [5] appears, read: product feedback inhibition at relatively high concentrations.
[6] abbreviates: feedback inhibition at relatively high concentrations.

Turning to `CC(C)(COP(=O)(O)OP(=O)(O)OC[C@H]1O[C@@H](n2cnc3c(N)ncnc32)[C@H](O)[C@@H]1OP(=O)(O)O)[C@@H](O)C(=O)NCCC(=O)NCCS` [CoA], the inhibition result on EhDPCK2 (setting [5]) is “Both EhDPCK1 and EhDPCK2 showed similar profiles of inhibition by CoA, acetyl-CoA, and malonyl-CoA”; at EhDPCK1 (setting [5]), “Both EhDPCK1 and EhDPCK2 showed similar profiles of inhibition by CoA, acetyl-CoA, and malonyl-CoA”.

As to `CC(=O)SCCNC(=O)CCNC(=O)[C@H](O)C(C)(C)COP(=O)(O)OP(=O)(O)OC[C@H]1O[C@@H](n2cnc3c(N)ncnc32)[C@H](O)[C@@H]1OP(=O)(O)O` [acetyl-CoA], the inhibition result was “Both EhDPCK1 and EhDPCK2 showed similar profiles of inhibition by CoA, acetyl-CoA, and malonyl-CoA” against EhDPCK2 (setting [6]); “Both EhDPCK1 and EhDPCK2 showed similar profiles of inhibition by CoA, acetyl-CoA, and malonyl-CoA” against EhDPCK1 (setting [6]).

Take `CC(C)(COP(=O)(O)OP(=O)(O)OC[C@H]1O[C@@H](n2cnc3c(N)ncnc32)[C@H](O)[C@@H]1OP(=O)(O)O)[C@@H](O)C(=O)NCCC(=O)NCCSC(=O)CC(=O)O` [malonyl-CoA]: the inhibition entry against EhDPCK2 (setting [6]) is “Both EhDPCK1 and EhDPCK2 showed similar profiles of inhibition by CoA, acetyl-CoA, and malonyl-CoA”; against EhDPCK1 (setting [6]) it was “Both EhDPCK1 and EhDPCK2 showed similar profiles of inhibition by CoA, acetyl-CoA, and malonyl-CoA”.

B1: EhDPCK1 (Entamoeba histolytica HM-1:IMSS) (protein)
chain: MKKIFVIGITGSICSGKSRLCKALQSKGIKTIDSDTIGHDVILQEDVKKEIKESFGEEVFNEEGQVDRKRLSDVVFTNKKQLKKLNEIMWNSIENKIKEQIQQLEIQGEKIVAVEAALLIRTNWMSWMDMIWVTTVSPEIAIARMTAGRGMTREECINRMKNQPSSREYARYADILFDTRFNRGTLERIFNREINAFLIDFNENKF
notes: expressed in E. coli BL21(DE3), Ni-NTA purified
Regarding B1, in data set [1], the Km amounted to 114 ± 19 µM, the Vmax was determined as 3.71 µmol/min/mg, the kcat worked out at 1.48 ± 0.172 s⁻¹ and the kcat/Km stood at 13000 ± 667 M⁻¹ s⁻¹. Further, in data set [2], the Km was determined as 19.6 ± 1.2 µM, the maximal velocity (Vmax) is 3.54 µmol/min/mg, the catalytic constant (kcat) was determined as 1.41 ± 0.04 s⁻¹ and the kcat/Km turned out to be 72000 ± 3830 M⁻¹ s⁻¹.

B2: EhDPCK2 (Entamoeba histolytica HM-1:IMSS) (protein)
chain: MVFVIGITGRICSGKSTLSKTLIKRKIPVIDCDKLGHELYQKGSIVYNDFIKLFGKEVVGVDGSIDRKKLSELVFSNPQNVKIISDLTWPAIYTLLQERIKVLEKEGHPIVGVEAALLIRANWSIVNVIWETRIDEAETIKRLKTRNGLSEEQAKKRIQSQPTQEEYDNKSQVQINTMGTIEETATLINKEVDKLLEQLKITLN
notes: as for B1
Take B2: in data set [3], the Km was found to be 57.9 ± 6.07 µM, the Vmax worked out at 2.48 µmol/min/mg, the kcat is 0.958 ± 0.0583 s⁻¹ and the kcat/Km stood at 16500 ± 1170 M⁻¹ s⁻¹. For the same molecule, in data set [4], the Km was 15.0 ± 2.4 µM, the Vmax stood at 2.71 µmol/min/mg, the kcat worked out at 1.05 ± 0.0617 s⁻¹ and the kcat/Km was 70800 ± 12300 M⁻¹ s⁻¹.

What is called Km is the concentration of substrate that gives half-maximal velocity. As a reminder, the Vmax is the top rate of the reaction or transport when substrate is in excess. For orientation: kcat means the number of substrate molecules converted per active site and unit of time at saturation. Usually kcat/Km stands for the second-order rate constant that governs catalysis at low substrate concentration.
